Laboratory results reported in patent US20100151486A1, “OSTEOPONTIN FUNCTIONAL EPITOPES, MONOCLONAL ANTIBODIES AGAINST THE EPITOPES AND USES THEREOF” (SHANGHAI NATIONAL ENGINEERING RESEARCH CENTER OF A, priority 2007, published 2010).

Assays:
[1] = target: T1, human osteopontin (human OPN protein) (human, UniProt P10451 17-314, limits assumed); test: ELISA, plate coated with OPN 2 ug/ml, COS-1 supernatant, HRP-rabbit anti-human IgG
T1 construct: The isoform follows from the 963 bp PCR fragment and is not otherwise stated; also called hOPN
Protocol: An ELISA plate was coated with 2 ug/ml OPN. The binding activity of the humanized antibody obtained from the transfection was detected by ELISA. […] The amino acid sequences of the h1A12HBb's and the h1A12Lb's variable regions were shown in FIG. 4, SEQ ID NO: 18 and SEQ ID NO: 19 show the nucleotide sequence and the amino acid sequence of h1A12Hb's variable region respectively. SEQ ID NO: 20 and SEQ ID NO: 21 show the nucleotide sequence and the amino acid sequence of h1A12Lb's variable region respectively. The genes of the humanized antibody's VH and VL (h1A12VHb/h1A12VLb) were synthesized respectively. […] Then, expression vectors of the light and the heavy chain were used to co-transfect the COS-1 cells. The antibody's antigen-binding activity was determined by ELISA. Specifically, an ELISA plate was coated with OPN protein (2 ug/ml) coated at 4° C. overnight, and was blocked with 2% BSA-PBS for 2 h at 37° C. […] HRP-rabbit anti-human IgG was added into the plate for binding reaction (incubated at 37° C. for 1 h).

MDA-MB-435s cells [2] = test: Cell invasion assay (Transwell, Matrigel); type: cell-based; conditions: antibody 25 μg/ml; in the presence of hOPN; 24 hours
Protocol: The assay of cell invasion was carried out using the Transwell system (Corning) with the pore size of […]. The basement membrane of the upper chamber was coated with the artificial matrix gel (Matrigel). After being dried in a flame hood, the matrigel was hydrated with DMEM at 37° C. for 1 hour. MDA-MB-435s cells were detached using 0.2% EDTA and suspended in 0.25% BSA/DMEM at the concentration of 5×10^5 cells/ml. 100 μl of the obtained cell suspension as well as the following 25 μg/nil of antibodies were respectively added into the upper chamber of each well: 1A12 (murine anti-human OPN antibody), c1A12 (human-mouse chimeric antibody), h1A12 (humanized antibody), and 23C3 (irrelevant antibody control). To lower chamber, 0.25% of BSA/DMEM (with or without OPN) was added. The system was then incubated in incubator at 37° C. for 24 hours. After that, the cells remaining in the upper chamber was wiped away using a cotton swab, and the cells penetrate through the basement membrane into the lower chamber were washed with PBS, fixed with 1% formaldehyde, and then stained with 0.5% crystal violet. The cells were counted in the field at 200× magnification under a microscope.

MDA-MB-435s cells [3] = test: Cell adhesion assay on hOPN-coated plate; type: cell-based; conditions: antibody 25 μg/ml; plate coated with 10 μg/ml hOPN; 2 hrs
Protocol: MDA-MB-435s was purchased from the Institute of Cell Biology of Chinese Academy of Sciences (Shanghai, China), and 23C3D3 was used as the irrelevant antibody.
A 96-well plate (Greiner) was coated with 10 μg/ml hOPN (prepared in Example 3) or BSA (SIGMA) at 4° C. overnight, and was then blocked with 1% BSA/PBS at 37° C. for 1 hour to block any non-specific binding sites. The MDA-MB-435s cells were detached using 0.2% EDTA and then re-suspended in 0.25% BSA/DMEM at the concentration of 5×10^5 cells/ml. To each well, 100 μl (5×10^4) MDA-MB-435s cells were added in the presence of various anti-OPN antibodies (25 μg/ml) murine anti-human OPN antibody 1A12, the human-murine chimeric antibody c 1A12 or the humanized antibody h1A12 as treatment groups and the irrelevant antibody 23C3 as control (25 μg/ml). After incubation at 37° C. for 2 hrs, the medium was removed and washed twice with PBS gently. The adherent cells were fixed in 1% formaldehyde at 4° C. for 10 minutes, stained with 0.5% crystal violet after washed with PBS and lysed with 2% Triton X-100 (50 μl). The absorbance was measured at 595 nm.

rabbit cornea = test: OPN-induced rabbit corneal neovascularization; type: in vivo; conditions: pellet with 200 ng hOPN and 1 μg antibody; for area of neovascularization / length of the newly generated blood vessels: relative to irrelevant antibody group, P<0,01
Protocol: The Hydron powder was dissolved in anhydrous ethanol under sterile condition to the final concentration of 12% (w/v), and dissolved with agitation under 37° C. to formulate the 12% Hydron cast solution, which was then stored at room temperature. A quota of sucralfate powder formulated in sterile Milli Q water under sterile conditions as a suspension with the final concentration of 100 μg/μl, which was stored at 4° C., and vortexed to homogeneous intermediately before use. Sustained-release pellets were prepared to each containing 200 ng hOPN and 50 μg sucralfate and, for the antibody groups, 1 μg anti-OPN antibodies, and for the control, the irrelevant antibody. The 12% Flydron east solution and the hOPN-sucralfate-PBS blend were mixed as the ratio of 1:1 (volume ratio), vortexed for 1 min. Then 5 μl mixed Hydron-sucralfate-hOPN solution was added onto a sterilized Parafilm surface, dried for about 30 min on a super-clean bench for a complete polymerization. The polymers were then shaped into uniform circular granules with a 2 mm diameter using an eye tweezers. The granules were stored at −20′C. Animals were grouped in the same way as in Experiment II-3, each group consisting of four eyes.
The rabbit was anesthetized at ear edge vein with 3% sodium pentobarbital (1 ml/kg body weight) and on both corneal surfaces with 1% tetracaine. The thickness of the cornea was measured using an ultrasonic cornea thickness gauge. A 3 mm half-depth incision was made at the center of the cornea using an ophthalmic knife, and an undermining tunnel toward the 12 o'clock or 3 o'clock position on the corneoscleral margin was made using a 2 mm-wide scleral tunnel knife, whereby the tunnel lied within the corneal layer with the top of the tunnel about 1 mm distant from the limbus corneae. The Hydron/sucralfate sustained-release pellet was implanted into the top of tunnel using micro-tweezers. The cuts were treated with chlortetracycline eye ointment after the surgery. From Day 1 after the surgery, the double-blinded observer observed the rabbit conical neovascularization under the slit-lamp each day, until the Day 10, The length (VL) and the vascular clock angle (CN, 30°=1CN) of the longest vessel were measured, and the area of neovascularization was calculated according to the following formula:
Area (mm^2)=0.2×π×VL (mm)×CN (mm)

MDA-MB-435s cells [4] = test: Clone formation on soft agar assay; type: cell-based; conditions: antibody 25 μg/ml every other day; 3 weeks
Protocol: The assay of clone formation on soft agar was conducted using a double-layer soft agar system. 2.5% melted agar was mixed the DMEM medium pre-warmed at 37° C. to formulate a 0.5% agar solution, which was then diluted with DMEM to a 0.3% agar solution. To each well of a 24-well plate was added 500 μl of a 0.5% agar solution, which was allowed to gel at 4° C., and then kept warm in an incubator at 37°C. The MDA-MB-435s cells were detached using 0.2% .EDTA and suspended in the 0.3% agar solution at the concentration of 5×10^3 cells/ml. 500 μl of the cell suspension was added each well and left to gel. From the second day, the cells were respectively treated with 1A12, c1A12, h1A12 or the irrelevant antibody (23C3D3) (25 μg/ml) every other day. After 3 weeks, the colony formation ability was evaluated by measuring the size of colonies containing more than 10 cells.

[5] = test system: human vascular endothelial cell (HUVEC); test: HUVEC proliferation by 3H-TdR incorporation; type: cell-based; conditions: M200+1% BSA+OPN+antibody; 24 hours
Protocol: HUVEC cell proliferation was measured by the ^3H-TdR incorporation method to determine the protective effect of OPN on cell survival and the inhibitory effect of the anti-OPN antibodies on the OPN protection. Each well of a 96-well plate was inoculated with 2×10^4 HUVECs and cultured in a complete medium for 24 hours. The cells were then treated as following for 24 hours: […]
iv. M200+1% BSA+OPN+murine anti-OPN antibody 1A12 v. M200+1% , BSA+OPN+human-murine chimeric anti-OPN antibody c1A12 vi. M200+1% BSA+OPN+humanized anti-OPN antibody h1A12 vii. M200+1% BSA+OPN+irrelevant antibody
24 hours later, 1 uCi/well ^3H-thymidine was added and, after being incubated at 37° C. for 6 hours, washed once with PBS. The plate was treated with ice-cold 10% trichloroacetic acid/H2O at 4° C. for 10 min, and then washed for two times with, ice-cold ddH2O. Cytolysis was conducted by adding into each well 0.1 ml of 0.5 N NaOH, 0.5% SDS at room temperature for 10 min. After adding 0.2 ml of 0.5 N HCl and mixing, the cells were collected using a multiple cell collector.

MDA-MB-435s cells [6] = test: Scratch wound healing assay; type: cell-based; conditions: antibody 25 μg/ml; 24 hours
Protocol: The MDA-MB-435s cells cultured in a 12-wells plate to almost confluent (90%) washed with PBS and starved overnight with serum-free DMEM. Scratches were made on the cell monolayer using a 10 μl pipette, and PBS was added to wash away the floating cells. The test groups were treated with 25 μg/ml of the murine anti-human OPN antibody 1A12, the human-murine chimeric antibody c1A12 and the humanized antibody h1A12, and the control group, 25 μg/ml of the irrelevant antibody. The cells were incubated in an incubator at 37° C. for 24 hours. The result was expressed as the number of the cells that cross the base line.

HUVECs = test: Formation of capillary-like structure in HUVECs on matrigel; type: cell-based, human
Protocol: HUVECs were cultured in the M200 medium containing LCGS to 80% confluence. The matrigel stored at −20° C. was took out the day before experiment and naturally thawed at 4° C. for 3 to 12 hours. To each well of a 96-welt plate was added […] using a pre-cooled pipet with carefully removing the bubbles, wherein the whole procedure was carried on ice. The loaded plate was incubated at 37° C. for 1 hour to gel the matrigel. To each well, 100 μl HUVECs (2×10^4/well) was gently added onto the surface of matrigel. To the treatment groups were further added the anti-hOPN antibodies 1A12, c1A12 and h1A12. The plate was incubated at 37° C. for […], and the formation of the capillary-like structure was observed 6 hours after.

T1 sequence (P10451 17-314 limits assumed): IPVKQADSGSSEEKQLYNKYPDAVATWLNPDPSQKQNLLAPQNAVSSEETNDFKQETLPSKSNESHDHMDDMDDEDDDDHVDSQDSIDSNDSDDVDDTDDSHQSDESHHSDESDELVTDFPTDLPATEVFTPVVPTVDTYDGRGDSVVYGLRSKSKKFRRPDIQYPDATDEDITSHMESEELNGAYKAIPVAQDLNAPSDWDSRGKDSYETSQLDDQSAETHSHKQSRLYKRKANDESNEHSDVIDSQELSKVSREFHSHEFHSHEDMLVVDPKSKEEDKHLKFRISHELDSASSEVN

Molecule | binding result [1] | blocking of invasion of the basement membrane by MDA-MB-435s (MDA-MB-435s cells [2]) | blocking of the binding between MDA-MB-435s cells and hOPN (MDA-MB-435s cells [3]) | corneal neovascularization relative to the OPN group (rabbit cornea) | area of neovascularization (rabbit cornea) | length of the newly generated blood vessels (rabbit cornea) | inhibition of clone size formed by MDA-MB-435s cells on soft agar (MDA-MB-435s cells [4]) | 3H-TdR incorporation relative to the OPN group [5] | inhibition of the reparation of the scratches and damages (MDA-MB-435s cells [6]) | potency of forming the capillary-like structure in HUVECs (HUVECs)
humanized anti-hOPN antibody h1A12 (h1A12Hb/h1A12Lb) (antibody, human IgG1, kappa, V domains shown, Tested as COS-1 supernatant in the ELISA; also called humanized antibody 1A12) VH: QVQLVQSGAEVKKPGASVKVSCKSSGYTFTTYVMHWVKQAPGQGLEWIGYINPYNDGSKYNEKFKGRVTITSDKSASTAYMELSSLRSEDTAVYYCASHYGGSPAYWGQGTLVTVSS VL: DVLMTQSPLSLPVTLGQPASISCRSSQSLVHSNGNTYLHWFQQRPGQSPKLLIYKVSNRFSGVPDRFSGSGSGTDFTLKISRVEAEDVGVYYCSQSTHVPWTFGGGTKVEIKR | binds |  |  |  |  |  |  |  |  | 
h1A12: humanized anti-hOPN mAb; VH SEQ ID NO: 19, VL SEQ ID NO: 21, human constant region (antibody, V domains shown, human constant regions; amino acid sequence of the VH in humanized anti-OPN antibody H1A12; amino acid sequence of the VL in humanized anti-OPN antibody H1A12) VH: QVQLVQSGAEVKKPGASVKVSCKSSGYTFTTYVMHWVKQAPGQGLEWIGYINPYNDGSKYNEKFKGRVTITSDKSASTAYMELSSLRSEDTAVYYCASHYGGSPAYWGQGTLVTVSS VL: DVLMTQSPLSLPVTLGQPASISCRSSQSLVHSNGNTYLHWFQQRPGQSPKLLIYKVSNRFSGVPDRFSGSGSGTDFTLKISRVEAEDVGVYYCSQSTHVPWTFGGGTKVEIKR |  | effectively block | effectively block | significantly reduced | significantly shrunk | significantly reduced | no significant differences | significantly lower | effectively inhibit | reduce
c1A12: chimeric anti-hOPN mAb between human and murine; VH SEQ ID NO: 4, VL SEQ ID NO: 6, human constant region (antibody, V domains shown, human constant regions; amino acid sequence of the heavy chain variable region in 1A12; amino acid sequence of the light chain variable region in 1A12) VH: QVQLEQSGPELVKPGASVKMSCKSSGYTFTTYVMHWVKQKPGQGLEWIGYINPYNDGSKYNEKFKGKATLTSDKSSNTAYMELSSLTSEDSAVYYCASHYGGSPAYWGQGTLVTVSA VL: DILMTQTPLSLPVSLGDQASISCRSSQSLVHSNGNTYLHWYLQKPGQSPKLLIYKVSNRFSGVPDRFSGSGSGTDFTLKISRVEAEDLGVYFCSQSTHVPWTFGGGTKLEIKR |  | effectively block | effectively block | significantly reduced | significantly shrunk | significantly reduced | no significant differences | significantly lower | effectively inhibit | reduce
